Assay results taken from patent US20200024330A1.

Columns and labels:
Assay in all cases: cell-based or functional assay
[1] = molecular target: HIV-1 Env of isolate MGRM-G-016 (subtype G) (HIV-1)
[2] = molecular target: HIV-1 Env of isolate 92UG024 (subtype D) (HIV-1)
[3] = molecular target: HIV-1 Env of isolate MG RM-D-008 (subtype D) (HIV-1)
[4] = molecular target: HIV-1 Env of isolate MGRM-C-024 (pseudovirus) (HIV-1 isolate MGRM-C-024, subtype C)
[5] = molecular target: HIV-1 JR-CSF Env N156A (HIV-1 (isolate JR-CSF)) (UniProt P20871)
[6] = molecular target: HIV-1 JR-CSF Env P470A (HIV-1 (isolate JR-CSF)) (UniProt P20871)
[7] = molecular target: HIV-1 JR-CSF Env R480A (HIV-1 (isolate JR-CSF)) (UniProt P20871)
[8] = molecular target: HIV-1 JR-CSF Env T162A (HIV-1 (isolate JR-CSF)) (UniProt P20871)
[9] = molecular target: HIV-1 JR-CSF Env Y177A (HIV-1 (isolate JR-CSF)) (UniProt P20871)
[10] = molecular target: HIV-1 MGRM-Chronic-B-023 Env (pseudovirus) (HIV-1)
[11] = molecular target: HIV-1 SC422661.8 Env (pseudovirus) (HIV-1)
[12] = molecular target: HIV-1 Env of isolate 97ZA012 (HIV-1)
[13] = molecular target: HIV-1 Env of isolate MGRM-Chronic-B-004 (HIV-1)
[14] = molecular target: HIV-1 Env of isolate QH0692.42 (HIV-1)
[15] = molecular target: HIV-1 Env of isolate TRO.11 (HIV-1)
[16] = molecular target: HIV-1 Env of isolate 92UG001 (HIV-1)
[17] = molecular target: HIV-1 Env of isolate MGRM-AE-001 (HIV-1)
[18] = molecular target: HIV-1 Env of isolate MGRM-D-003 (HIV-1)
[19] = molecular target: HIV-1 92RW009 envelope glycoprotein (Env) (HIV-1)
[20] = molecular target: HIV-1 94UG103 envelope glycoprotein (Env) (HIV-1)
[21] = molecular target: HIV-1 APV6 envelope glycoprotein (Env) on pseudovirus (HIV-1)
[22] = molecular target: HIV-1 Env of isolate 92UG001 (clade D) (HIV-1)
[23] = molecular target: HIV-1 Env of isolate MGRM-D-011 (clade D) (HIV-1)
[24] = molecular target: HIV-1 Env of isolate MGRM-D-028 (clade D) (HIV-1)
[25] = molecular target: HIV-1 Env of isolate MGRM-G-027 (clade G pseudovirus) (HIV-1)
[26] = molecular target: HIV-1 Env of pseudovirus MGRM-Chronic-B-002, clade B (HIV-1)
[27] = molecular target: HIV-1 Env of pseudovirus PVO.4 (Acute), clade B (HIV-1)
[28] = molecular target: HIV-1 JRCSF envelope glycoprotein (Env) on pseudovirus (HIV-1)
[29] = molecular target: HIV-1 MGRM-F1-016 Env (pseudovirus) (HIV-1)
[30] = molecular target: HIV-1 MGRM-F1-022 Env (pseudovirus) (HIV-1)
[31] = molecular target: HIV-1 93UG077 envelope glycoprotein (Env) on pseudovirus (HIV-1)
[32] = molecular target: HIV-1 CMU02 envelope glycoprotein (Env) on pseudovirus (HIV-1)
[33] = molecular target: aMLV envelope on pseudovirus (negative control virus)

Sequence of PGT-143 (4980_N08) (antibody) (VH): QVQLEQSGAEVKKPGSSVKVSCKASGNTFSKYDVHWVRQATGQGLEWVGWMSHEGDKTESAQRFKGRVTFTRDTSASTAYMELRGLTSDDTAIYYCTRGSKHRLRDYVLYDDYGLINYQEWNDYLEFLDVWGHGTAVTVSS
Sequence of PGT-143 (4980_N08) (antibody) (VL): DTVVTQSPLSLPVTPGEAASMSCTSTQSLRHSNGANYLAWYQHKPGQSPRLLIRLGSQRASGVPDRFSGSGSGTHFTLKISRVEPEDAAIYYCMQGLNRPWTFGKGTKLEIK
Sequence of PGT-144 (4970_K22) (antibody) (VH): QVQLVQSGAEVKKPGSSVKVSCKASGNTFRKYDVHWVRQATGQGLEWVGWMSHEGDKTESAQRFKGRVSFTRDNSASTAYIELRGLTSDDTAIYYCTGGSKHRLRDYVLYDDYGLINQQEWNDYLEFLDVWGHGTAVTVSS
Sequence of PGT-144 (4970_K22) (antibody) (VL): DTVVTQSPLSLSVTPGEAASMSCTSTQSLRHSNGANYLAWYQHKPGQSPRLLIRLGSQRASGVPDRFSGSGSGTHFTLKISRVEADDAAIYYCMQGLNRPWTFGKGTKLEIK
Sequence of PGT-142 (4995_E20) (antibody) (VH): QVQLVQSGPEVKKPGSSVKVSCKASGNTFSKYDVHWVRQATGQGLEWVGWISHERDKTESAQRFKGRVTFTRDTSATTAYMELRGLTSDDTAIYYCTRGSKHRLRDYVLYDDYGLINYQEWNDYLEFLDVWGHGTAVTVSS
Sequence of PGT-142 (4995_E20) (antibody) (VL): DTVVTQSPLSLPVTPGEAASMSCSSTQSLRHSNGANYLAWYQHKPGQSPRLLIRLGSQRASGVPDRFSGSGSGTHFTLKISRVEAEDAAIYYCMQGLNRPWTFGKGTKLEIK
Sequence of PGT-141 (4964_G22; 4993_K13) (antibody) (VH): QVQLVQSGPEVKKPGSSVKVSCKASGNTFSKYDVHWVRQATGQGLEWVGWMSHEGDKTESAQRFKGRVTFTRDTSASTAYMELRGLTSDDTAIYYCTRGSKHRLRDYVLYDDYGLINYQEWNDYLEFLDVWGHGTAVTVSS

## PGT-143 (4980_N08) (antibody)
[1]
  neutralization IC50: 7.6 µg/mL

## 5145_B14 (PGT-127) (antibody)
[2]
  IC50 (µg/mL), pseudovirus neutralization: > 50 µg/mL
[3]
  IC50 (µg/mL), pseudovirus neutralization: > 50 µg/mL
[4]
  IC50 (µg/mL) neutralization: > 50 µg/mL
[5]
  Fold IC50 increase relative to wild-type: 1.6 fold
[6]
  Fold IC50 increase relative to wild-type: 1 fold
[7]
  Fold IC50 increase relative to wild-type: 0.2 fold
[8]
  Fold IC50 increase relative to wild-type: 1.1 fold
[9]
  Fold IC50 increase relative to wild-type: 2.9 fold
[10]
  IC50, pseudovirus neutralization: > 50 µg/mL
[11]
  IC50, pseudovirus neutralization: 36.7 µg/mL

## VRC01 (antibody)
[12]
  neutralization IC50: 0.088 µg/mL
[13]
  IC50: 0.055 µg/mL
[1]
  neutralization IC50: 0.063 µg/mL
[14]
  neutralization IC50: 1.19 µg/mL
[15]
  neutralization IC50: 0.186 µg/mL

## PGV04 (antibody)
[16]
  IC50, pseudovirus neutralization: 0.553 µg/mL
[17]
  IC50 (µg/mL), pseudovirus neutralization: 0.063 µg/mL
[18]
  IC50 (µg/mL), pseudovirus neutralization: > 50 µg/mL
[1]
  neutralization IC50: 0.019 µg/mL

## PGT-144 (4970_K22) (antibody)
[1]
  neutralization IC50: > 50 µg/mL

## 1496_C09 (PG9) (TCN-109) (antibody)
[19]
  IC50 (µg/ml), pseudovirus neutralization: 0.03 µg/mL
[20]
  IC50 (µg/ml), pseudovirus neutralization: 0.24 µg/mL
  IC50 neutralization: 0.31 µg/mL
[21]
  IC50 (ug/ml), neutralizing activity: 0.214 µg/mL
  IC50 neutralization: 0.214 µg/mL
  IC80, neutralization: 1.13 µg/mL
  IC90, neutralization: 3.21 µg/mL
  IC95, neutralization: 9.65 µg/mL
[22]
  IC50 (µg/ml), pseudovirus neutralization: 41.8 µg/mL
[17]
  IC50 (µg/mL), pseudovirus neutralization: 20.6 µg/mL
  IC50 (µg/ml), pseudovirus neutralization: 2.97 µg/mL
[18]
  IC50 (µg/mL), pseudovirus neutralization: 0.033 µg/mL
[23]
  IC50 (µg/ml), pseudovirus neutralization: 0.06 µg/mL
[24]
  IC50 (µg/ml), pseudovirus neutralization: 4.39 µg/mL
[1]
  neutralization IC50: 1.36 µg/mL
[25]
  IC50 (µg/ml), pseudovirus neutralization: 0.01 µg/mL
[26]
  IC50 (µg/ml), pseudovirus neutralization: 1.41 µg/mL
[27]
  IC50 (µg/ml), pseudovirus neutralization: 4.01 µg/mL
[28]
  IC90 (pseudovirus neutralization): < 0.0025 µg/mL
[29]
  IC50 (µg/ml), pseudovirus neutralization: 0.58 µg/mL
[30]
  IC50 (µg/ml), pseudovirus neutralization: 0.06 µg/mL

## 4858_P08 (PGT-123) (antibody)
[31]
  IC50 (ug/ml), neutralizing activity: 0.0303 µg/mL
  IC50, pseudovirus neutralization: 0.0303 µg/mL
  IC80, pseudovirus neutralization: 0.143 µg/mL
  IC90 (pseudovirus neutralization): 0.35 µg/mL
  IC95, pseudovirus neutralization: 0.78 µg/mL
[21]
  IC50 (ug/ml), neutralizing activity: 0.0327 µg/mL
  IC50, pseudovirus neutralization: 0.0328 µg/mL
  IC80, pseudovirus neutralization: 0.145 µg/mL
  IC90 (pseudovirus neutralization): 0.339 µg/mL
  IC95, pseudovirus neutralization: 0.726 µg/mL
[32]
  IC50 (ug/ml), neutralizing activity: > 10 µg/mL
  IC50, pseudovirus neutralization: > 10 µg/mL
  IC80, pseudovirus neutralization: > 10 µg/mL
  IC90 (pseudovirus neutralization): > 10 µg/mL
  IC95, pseudovirus neutralization: > 10 µg/mL
[2]
  IC50 (µg/mL), pseudovirus neutralization: > 50 µg/mL
[3]
  IC50 (µg/mL), pseudovirus neutralization: > 50 µg/mL
[4]
  IC50 (µg/mL) neutralization: 0.195 µg/mL
[5]
  Fold IC50 increase relative to wild-type: 6.2 fold
[6]
  Fold IC50 increase relative to wild-type: 0.8 fold
[7]
  Fold IC50 increase relative to wild-type: 1.7 fold
[8]
  Fold IC50 increase relative to wild-type: 0.7 fold
[9]
  Fold IC50 increase relative to wild-type: 2.4 fold
[10]
  IC50, pseudovirus neutralization: 0.055 µg/mL
[11]
  IC50, pseudovirus neutralization: 0.039 µg/mL
[33]
  IC50 (ug/ml), neutralizing activity: > 10 µg/mL

## PGT-121 (antibody)
[20]
  IC50 neutralization: 1.38 µg/mL
[17]
  IC50 (µg/mL), pseudovirus neutralization: > 50 µg/mL

## 4838_L06 (PGT-121) (antibody)
[32]
  IC50 (ug/ml), neutralizing activity: > 10 µg/mL
[2]
  IC50 (µg/mL), pseudovirus neutralization: > 50 µg/mL
[3]
  IC50 (µg/mL), pseudovirus neutralization: > 50 µg/mL
[4]
  IC50 (µg/mL) neutralization: 0.052 µg/mL
[10]
  IC50, pseudovirus neutralization: 0.005 µg/mL
[11]
  IC50, pseudovirus neutralization: 0.098 µg/mL
[33]
  IC50 (ug/ml), neutralizing activity: > 10 µg/mL

## PGT-122 (antibody)
[20]
  IC50 neutralization: 1.46 µg/mL
[17]
  IC50 (µg/mL), pseudovirus neutralization: > 50 µg/mL

## PGT-142 (4995_E20) (antibody)
[1]
  neutralization IC50: 8.17 µg/mL

## PGT-141 (4964_G22; 4993_K13) (antibody)
[1]
  neutralization IC50: 4.69 µg/mL

## 4877_D15 (PGT-122) (antibody)
[31]
  IC50 (ug/ml), neutralizing activity: 0.191 µg/mL
[21]
  IC50 (ug/ml), neutralizing activity: 0.0851 µg/mL
[32]
  IC50 (ug/ml), neutralizing activity: > 10 µg/mL
[2]
  IC50 (µg/mL), pseudovirus neutralization: > 50 µg/mL
[3]
  IC50 (µg/mL), pseudovirus neutralization: > 50 µg/mL
[4]
  IC50 (µg/mL) neutralization: 0.102 µg/mL
[10]
  IC50, pseudovirus neutralization: 0.01 µg/mL
[11]
  IC50, pseudovirus neutralization: 0.103 µg/mL
[33]
  IC50 (ug/ml), neutralizing activity: > 10 µg/mL
